Data reported in doi:10.1101/2020.06.18.158576 (bioRxiv, 2020).

T1: SasA (unlabeled) (Synechococcus elongatus, UniProt Q06904 1-387)
T1 sequence: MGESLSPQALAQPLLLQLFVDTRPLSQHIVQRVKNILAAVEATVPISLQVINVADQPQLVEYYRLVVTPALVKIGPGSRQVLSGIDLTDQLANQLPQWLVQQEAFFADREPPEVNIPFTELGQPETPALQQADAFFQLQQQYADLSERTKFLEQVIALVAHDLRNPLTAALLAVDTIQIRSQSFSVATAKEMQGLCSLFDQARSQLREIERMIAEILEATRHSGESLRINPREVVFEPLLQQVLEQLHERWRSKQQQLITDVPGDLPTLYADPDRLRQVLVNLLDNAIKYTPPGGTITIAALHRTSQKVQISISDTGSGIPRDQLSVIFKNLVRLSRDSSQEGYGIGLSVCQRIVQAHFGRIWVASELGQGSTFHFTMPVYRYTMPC

T2: KaiC (Synechococcus elongatus, UniProt Q79PF4 1-519)
T2 sequence: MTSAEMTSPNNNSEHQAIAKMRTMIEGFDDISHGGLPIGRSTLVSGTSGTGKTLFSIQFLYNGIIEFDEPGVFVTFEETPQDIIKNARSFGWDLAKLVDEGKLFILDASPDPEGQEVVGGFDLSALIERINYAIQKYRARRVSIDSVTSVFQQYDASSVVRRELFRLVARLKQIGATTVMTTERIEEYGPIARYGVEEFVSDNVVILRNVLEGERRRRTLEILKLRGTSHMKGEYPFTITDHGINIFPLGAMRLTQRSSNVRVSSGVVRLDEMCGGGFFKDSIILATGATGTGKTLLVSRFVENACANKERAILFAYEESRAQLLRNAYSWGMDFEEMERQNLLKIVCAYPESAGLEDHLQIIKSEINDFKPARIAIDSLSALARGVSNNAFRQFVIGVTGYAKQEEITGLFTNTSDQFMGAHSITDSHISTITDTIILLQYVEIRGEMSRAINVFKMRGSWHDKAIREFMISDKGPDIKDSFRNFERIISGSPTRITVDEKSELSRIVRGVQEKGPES


Key:
SasA (unlabeled) = target: T1, SasA (unlabeled); assay: fluorescence polarisation
KaiC = target: T2, KaiC; assay: fluorescence polarisation

Binder | binding result (SasA (unlabeled)) | binding result (KaiC)
RpaA R121Q mutant (natural protein) MKPRILVIDDDSAILELVAVNLEMSGYDVRKAEDGIKGQALAVQLVPDLIMLDLMLPRVDGFTVCQRLRRDERTAEIPVLMLTALGQTQDKVEGFNAGADDYLTKPFEVEEMLARVRALLQRTDRIPHAARHSEILSYGPLTLIPERFEAIWFNRTVKLTHLEFELLHCLLQRHGQTVAPSEILKEVWGYDPDDDIETIRVHIRHLRTKLEPDPRHPRYIKTVYGAGYCLELPAETELHQHADQFPSAS | binds | –
RpaA, fluorescently labeled probe (natural protein, fluorescently labeled using sortase-mediated ligation) MKPRILVIDDDSAILELVAVNLEMSGYDVRKAEDGIKGQALAVQLVPDLIMLDLMLPRVDGFTVCQRLRRDERTAEIPVLMLTALGQTQDKVEGFNAGADDYLTKPFEVEEMLARVRALLRRTDRIPHAARHSEILSYGPLTLIPERFEAIWFNRTVKLTHLEFELLHCLLQRHGQTVAPSEILKEVWGYDPDDDIETIRVHIRHLRTKLEPDPRHPRYIKTVYGAGYCLELPAETELHQHADQFPSAS | binds | –

The next lines start with the values.

binding result (SasA (unlabeled)) | binding result (KaiC) | Binder
– | binds | SasA, fluorescently labeled probe (enzyme, fluorescently labeled using sortase-mediated ligation) MGESLSPQALAQPLLLQLFVDTRPLSQHIVQRVKNILAAVEATVPISLQVINVADQPQLVEYYRLVVTPALVKIGPGSRQVLSGIDLTDQLANQLPQWLVQQEAFFADREPPEVNIPFTELGQPETPALQQADAFFQLQQQYADLSERTKFLEQVIALVAHDLRNPLTAALLAVDTIQIRSQSFSVATAKEMQGLCSLFDQARSQLREIERMIAEILEATRHSGESLRINPREVVFEPLLQQVLEQLHERWRSKQQQLITDVPGDLPTLYADPDRLRQVLVNLLDNAIKYTPPGGTITIAALHRTSQKVQISISDTGSGIPRDQLSVIFKNLVRLSRDSSQEGYGIGLSVCQRIVQAHFGRIWVASELGQGSTFHFTMPVYRYTMPC
– | binds | KaiA, fluorescently labeled probe (natural protein, fluorescently labeled using sortase-mediated ligation) MLSQIAICIWVESTAILQDCQRALSADRYQLQVCESGEMLLEYAQTHRDQIDCLILVAANPSFRAVVQQLCFEGVVVPAIVVGDRDSEDPDEPAKEQLYHSAELHLGIHQLEQLPYQVDAALAEFLRLAPVETMADHIMLMGANHDPELSSQQRDLAQRLQERLGYLGVYYKRDPDRFLRNLPAYESQKLHQAMQTSYREIVLSYFSPNSNLNQSIDNFVNMAFFADVPVTKVVEIHMELMDEFAKKLRVEGRSEDILLDYRLTLIDVIAHLCEMYRRSIPRET
